# According to doi:10.1101/266643 (bioRxiv, 2018):
# Target: TrkA receptor (tropomyosin receptor kinase A) on NIH3T3-TrkA cells (UniProt P04629 33-796)
# Sequence (P04629 33-796): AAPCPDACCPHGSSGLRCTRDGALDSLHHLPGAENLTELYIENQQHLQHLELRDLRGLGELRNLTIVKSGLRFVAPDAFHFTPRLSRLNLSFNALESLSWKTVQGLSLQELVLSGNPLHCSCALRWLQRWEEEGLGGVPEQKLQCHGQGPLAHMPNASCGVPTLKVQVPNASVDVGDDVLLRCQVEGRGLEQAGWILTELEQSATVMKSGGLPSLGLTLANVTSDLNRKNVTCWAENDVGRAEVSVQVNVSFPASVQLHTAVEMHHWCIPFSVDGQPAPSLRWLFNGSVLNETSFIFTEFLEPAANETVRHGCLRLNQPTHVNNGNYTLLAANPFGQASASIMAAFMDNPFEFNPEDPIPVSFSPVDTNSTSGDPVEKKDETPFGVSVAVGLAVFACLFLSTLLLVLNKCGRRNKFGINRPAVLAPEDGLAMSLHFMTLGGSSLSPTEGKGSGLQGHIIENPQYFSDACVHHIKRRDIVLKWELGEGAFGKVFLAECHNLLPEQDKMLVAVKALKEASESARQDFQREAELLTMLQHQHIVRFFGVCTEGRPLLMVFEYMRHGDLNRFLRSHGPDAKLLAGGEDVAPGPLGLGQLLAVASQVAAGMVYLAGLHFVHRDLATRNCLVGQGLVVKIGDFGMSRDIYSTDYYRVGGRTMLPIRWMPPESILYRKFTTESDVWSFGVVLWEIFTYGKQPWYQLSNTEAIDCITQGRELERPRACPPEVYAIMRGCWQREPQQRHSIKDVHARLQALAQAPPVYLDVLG
row,Kd [nM],Binder
1,2.79,"NGF^R100W, mature form of the HSAN V mutant nerve growth factor, monobiotinylated, with AviTag (ligand, biotin on the AviTag (BirA co-expressed); conjugated to streptavidin-QD655 for the assays on cells) SSTHPVFHMGEFSVCDSVSVWVGDKTTATDIKGKEVTVLAEVNINNSVFRQYFFETKCRASNPVESGCRGIDSKHWNSYCTTTHTFVKALTTDEKQAAWWFIRIDTACVCVLSRKATRRGGGGLNDIFEAQKIEWHE"
2,2.27,"wildtype nerve growth factor (wtNGF), monobiotinylated, with AviTag (ligand, mouse, UniProt P01139 122-241, looked up, biotin on the AviTag (BirA co-expressed); conjugated to streptavidin-QD655 for the assays on cells) SSTHPVFHMGEFSVCDSVSVWVGDKTTATDIKGKEVTVLAEVNINNSVFRQYFFETKCRASNPVESGCRGIDSKHWNSYCTTTHTFVKALTTDEKQAAWRFIRIDTACVCVLSRKATRRG"
